We go through 5 molecules from US20160031996A1 (CSL, published 2016).

Test [1] deals with human IL-3Rα E51Q/P88T double mutant, full length (human) (UniProt P26951). Kind of test: flow cytometry, MFI normalised to WT. Background: Flow cytometry measures light scatter and fluorescence of single cells or particles in a stream.
In test [2] the target is human IL-3Rα E51Q/S59A double mutant, full length (human) (UniProt P26951). As to the kind of experiment: flow cytometry, MFI normalised to WT.
Test [3] deals with human IL-3Rα E51Q/S59A/P88T triple mutant, full length (human) (UniProt P26951). Kind of test: flow cytometry, MFI normalised to WT.
Test [4] deals with human IL-3Rα S59A/P88T double mutant, full length (human) (UniProt P26951). Kind of test: flow cytometry, MFI normalised to WT.
Test [5] concerns the target T1, full length human IL-3Rα, wild type (human, UniProt P26951 19-378).
T1 construct: expressed in 293F cells; also called WT
T1 sequence: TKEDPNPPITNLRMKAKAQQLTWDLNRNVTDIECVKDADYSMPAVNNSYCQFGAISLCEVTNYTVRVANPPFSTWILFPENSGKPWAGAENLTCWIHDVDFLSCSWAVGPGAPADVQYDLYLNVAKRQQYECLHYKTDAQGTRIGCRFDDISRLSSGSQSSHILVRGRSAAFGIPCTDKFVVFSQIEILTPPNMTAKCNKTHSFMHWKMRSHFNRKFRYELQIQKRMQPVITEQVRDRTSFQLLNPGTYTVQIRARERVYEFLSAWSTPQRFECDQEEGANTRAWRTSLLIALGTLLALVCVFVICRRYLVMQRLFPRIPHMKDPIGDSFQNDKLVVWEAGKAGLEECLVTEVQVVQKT
As to the kind of experiment: flow cytometry, MFI normalised to WT (reference, set as 100%). The protocol: Median fluorescence intensity (MFI) of each antibody was determined for WT IL-3Rα and for each IL-3Rα mutant. The MFI of WT IL-3Rα staining for each antibody was set as 100% then the MFI of each mutant was normalized to a percent of WT staining.

The target of a further test is T2, human IL-3 (human, UniProt P08700 20-152).
T2 sequence (looked up): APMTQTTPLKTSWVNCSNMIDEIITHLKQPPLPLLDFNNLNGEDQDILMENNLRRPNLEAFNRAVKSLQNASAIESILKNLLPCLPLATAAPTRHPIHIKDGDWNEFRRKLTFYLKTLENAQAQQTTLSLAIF
Kind of test: flow cytometry, 293F cells expressing mutant IL-3Rα and CD131. The protocol: STAT5 activity was measured by flow cytometry after intracellular staining with a phosphoSTAT5 antibody (pSTAT5).

Consider “anti-human IL-3Rα monoclonal antibody 9F5”, for which the MFI as percent of WT staining in test [1] was 70.1 % of WT MFI; in test [2] it was 87 % of WT MFI; in test [3], 32.7 % of WT MFI; in test [4], 95.6 % of WT MFI; in test [5], 100 % of WT MFI.

B1: human IL-3Rα E51Q/S59A double mutant, full length (receptor)
chain: TKEDPNPPITNLRMKAKAQQLTWDLNRNVTDIQCVKDADYAMPAVNNSYCQFGAISLCEVTNYTVRVANPPFSTWILFPENSGKPWAGAENLTCWIHDVDFLSCSWAVGPGAPADVQYDLYLNVAKRQQYECLHYKTDAQGTRIGCRFDDISRLSSGSQSSHILVRGRSAAFGIPCTDKFVVFSQIEILTPPNMTAKCNKTHSFMHWKMRSHFNRKFRYELQIQKRMQPVITEQVRDRTSFQLLNPGTYTVQIRARERVYEFLSAWSTPQRFECDQEEGANTRAWRTSLLIALGTLLALVCVFVICRRYLVMQRLFPRIPHMKDPIGDSFQNDKLVVWEAGKAGLEECLVTEVQVVQKT
For the molecule B1, in the test with human IL-3, the binding result is on record as “binds”.

B2: human IL-3Rα E51Q/P88T double mutant, full length (receptor)
chain: TKEDPNPPITNLRMKAKAQQLTWDLNRNVTDIQCVKDADYSMPAVNNSYCQFGAISLCEVTNYTVRVANTPFSTWILFPENSGKPWAGAENLTCWIHDVDFLSCSWAVGPGAPADVQYDLYLNVAKRQQYECLHYKTDAQGTRIGCRFDDISRLSSGSQSSHILVRGRSAAFGIPCTDKFVVFSQIEILTPPNMTAKCNKTHSFMHWKMRSHFNRKFRYELQIQKRMQPVITEQVRDRTSFQLLNPGTYTVQIRARERVYEFLSAWSTPQRFECDQEEGANTRAWRTSLLIALGTLLALVCVFVICRRYLVMQRLFPRIPHMKDPIGDSFQNDKLVVWEAGKAGLEECLVTEVQVVQKT
For the molecule B2, the binding result with human IL-3 is given as “binds”.

B3: human IL-3Rα E51Q/S59A/P88T triple mutant, full length (receptor)
chain: TKEDPNPPITNLRMKAKAQQLTWDLNRNVTDIQCVKDADYAMPAVNNSYCQFGAISLCEVTNYTVRVANTPFSTWILFPENSGKPWAGAENLTCWIHDVDFLSCSWAVGPGAPADVQYDLYLNVAKRQQYECLHYKTDAQGTRIGCRFDDISRLSSGSQSSHILVRGRSAAFGIPCTDKFVVFSQIEILTPPNMTAKCNKTHSFMHWKMRSHFNRKFRYELQIQKRMQPVITEQVRDRTSFQLLNPGTYTVQIRARERVYEFLSAWSTPQRFECDQEEGANTRAWRTSLLIALGTLLALVCVFVICRRYLVMQRLFPRIPHMKDPIGDSFQNDKLVVWEAGKAGLEECLVTEVQVVQKT
As for B3, in the test with human IL-3, the binding result is “binds”.

B4: human IL-3Rα S59A/P88T double mutant, full length (receptor)
chain: TKEDPNPPITNLRMKAKAQQLTWDLNRNVTDIECVKDADYAMPAVNNSYCQFGAISLCEVTNYTVRVANTPFSTWILFPENSGKPWAGAENLTCWIHDVDFLSCSWAVGPGAPADVQYDLYLNVAKRQQYECLHYKTDAQGTRIGCRFDDISRLSSGSQSSHILVRGRSAAFGIPCTDKFVVFSQIEILTPPNMTAKCNKTHSFMHWKMRSHFNRKFRYELQIQKRMQPVITEQVRDRTSFQLLNPGTYTVQIRARERVYEFLSAWSTPQRFECDQEEGANTRAWRTSLLIALGTLLALVCVFVICRRYLVMQRLFPRIPHMKDPIGDSFQNDKLVVWEAGKAGLEECLVTEVQVVQKT
As to B4, the binding result with human IL-3 was “binds”.
